Data: patent publication US20080292760A1, “Semi-Solid Food Products and Methods For Their Production, Based on Inhibiting Amylase Starch Breakdown” (WAGENINGEN CENTRE FOR FOOD SCIENCES, priority 2004, published 2008)

Test: amylase study: sensory rating of vanilla custard desserts with added amylase
Type: in vivo, human
Protocol: The role of salivary amylase in modifying texture sensations was evaluated in the following examples, in which the level of amylase activity was varied within subjects, rather than between subjects. Alpha-amylase was added in varying concentrations to starch and CMC (non-starch)-based vanilla custard desserts. Additionally, amylase activity was inhibited to various degrees by adding the pharmaceutical amylase inhibitor Acarbose (CAS nr. 56180-94-0) in various concentrations to the same test foods.
Eighteen subjects, 11 females and 7 males aged between 18 and 34 yrs, participated the ‘amylase study’ and 7 different subjects, all females aged between 39 and 56 yrs, participated in the ‘acarbose study’. The subjects participating in the latter study had been informed about acarbose and its possibly side effects if swallowed. To avoid these side effects, subjects expectorated rather than swallowed the acarbose samples. All subjects signed consent forms expressing their willingness to participate in the studies, and all had previously been screened for olfactory and taste disorders and had received extensive training in the description of sensory mouthfeel and afterfeel attributes for semi-solid foods. Testing took place at the sensory facilities of TNO-Nutrition and Food Research in Zeist, The Netherlands.
For the ‘amylase study’, two commercially available full-fat vanilla custard desserts (3 wt % fat AH vanille vla or “AH”, Albert Heijn Corp., Zaandam, The Netherlands; and 3 wt % fat Boerenland via or “BL”, Campina Corp., Woerden, The Netherlands) were used as the two starch-based vanilla custard desserts. For the ‘acarbose study’, Boerenland via was used again but the Albert Heijn via was replaced by a low-fat dairy custard (0.1 wt % fat Creamex, Creamex Corp., Rijkervoort, The Netherlands).
In both studies, the effect of amylase and acarbose on starch-based custards was compared with their effects on non-starch custards to verify amylase-starch interactions. A non-starch custard was produced using full-fat (3 wt %) commercially available milk (Campina Corp., Woerden, The Netherlands) and adding 0.85 wt % of sodium carboxy methylcellulose (or “CMC”) (Akuell AF 3295, Akzo Nobel Corp., Amersfoort, The Netherlands), 6.25 wt % of sugar and 0.33 wt % of vanilla powder. Yellow colorant (Egg yellow, Supercook, Leeds, United Kingdom) was added at 3.33 ml/l custard to match the color of the starch-based custards.
For the amylase study, a bacterial α-amylase (from Bacillus licheniformis, with 15 wt % NaCl and 25 wt % sucrose, Sigma Corp., Zwijndrecht, The Netherlands) was used to prepare amylase solutions at concentrations of 40, 160, and 640 units in 100 μl aliquots of water. This concentration range is similar to the range of individual amylase levels found across a group of young and healthy subjects (Engelen, unpublished results). The amylase concentrations, including a control of 0 units, were added to 5 ml samples of the starch-based custards. Only the highest concentration, 640 units, and the control were added to 5 ml samples of the CMC custard.
Panelists were seated in sensory booths with appropriate ventilation and lighting. Testing took place over either 3 (‘amylase study’) or 1.5 (‘acarbose study’) sessions of 2 hours. Within each session, subjects were presented with 20 trials during which they received in the amylase study each of the three custards once with the various amounts of amylase and with two different processing instructions. Over the 3 sessions, each custard was presented 3 times in each condition. In the ‘acarbose study’, each of the three custards with various amounts of acarbose were presented twice in the first session, and once in the second half session. The stimulus presentation order was randomized per subject and per session. The trials were presented at an average rate of one trial per 5 minutes. A break separated the first and the second half of each session. […]

[1] = R, AH custard, amylase 40 units
[2] = R, AH custard, amylase 160 units
[3] = R, AH custard, amylase 640 units
[4] = R, BL custard, amylase 40 units
[5] = R, BL custard, amylase 160 units
[6] = R, BL custard, amylase 640 units
[7] = R, CMC custard, amylase 640 units
[8] = U, AH custard, amylase 40 units
[9] = U, AH custard, amylase 160 units
[10] = U, AH custard, amylase 640 units
[11] = U, BL custard, amylase 40 units
[12] = U, BL custard, amylase 160 units
[13] = U, BL custard, amylase 640 units
[14] = U, CMC custard, amylase 640 units

B1: Amylase: bacterial α-amylase from Bacillus licheniformis, with 15 wt % NaCl and 25 wt % sucrose, Sigma Corp. (protein, UniProt P06278 30-512, looked up)
Alpha-amylase: ANLNGTLMQYFEWYMPNDGQHWKRLQNDSAYLAEHGITAVWIPPAYKGTSQADVGYGAYDLYDLGEFHQKGTVRTKYGTKGELQSAIKSLHSRDINVYGDVVINHKGGADATEDVTAVEVDPADRNRVISGEHRIKAWTHFHFPGRGSTYSDFKWHWYHFDGTDWDESRKLNRIYKFQGKAWDWEVSNENGNYDYLMYADIDYDHPDVAAEIKRWGTWYANELQLDGFRLDAVKHIKFSFLRDWVNHVREKTGKEMFTVAEYWQNDLGALENYLNKTNFNHSVFDVPLHYQFHAASTQGGGYDMRKLLNSTVVSKHPLKAVTFVDNHDTQPGQSLESTVQTWFKPLAYAFILTRESGYPQVFYGDMYGTKGDSQREIPALKHKIEPILKARKQYAYGAQHDYFDHHDIVGWTREGDSSVANSGLAALITDGPGGAKRMYVGRQNAGETWHDITGNRSEPVVINSEGWGEFHVNGGSVSIYVQR
modifications: formulated with NaCl and sucrose
decrease of creamy mouthfeel (AH custard, amylase added): up to 25%
airy-mo [1]: 25
bitter/chem-fl [1]: 30
creamy-af [1]: 38
creamy-mo [1]: 44
fatty-af [1]: 29
heterogeneous-mo [1]: 26
prickling-mo [1]: 19
rough-af [1]: 26
smooth-mo [1]: 65
sticky-af [1]: 28
temperature-mo [1]: 38
thick-mo [1]: 41
airy-mo [2]: 25
bitter/chem-fl [2]: 38
creamy-af [2]: 35
creamy-mo [2]: 37
fatty-af [2]: 31
heterogeneous-mo [2]: 29
prickling-mo [2]: 20
rough-af [2]: 25
smooth-mo [2]: 62
sticky-af [2]: 29
temperature-mo [2]: 35
thick-mo [2]: 38
airy-mo [3]: 25
bitter/chem-fl [3]: 44
creamy-af [3]: 34
creamy-mo [3]: 35
fatty-af [3]: 29
heterogeneous-mo [3]: 33
prickling-mo [3]: 25
rough-af [3]: 23
smooth-mo [3]: 61
sticky-af [3]: 29
temperature-mo [3]: 38
thick-mo [3]: 41
airy-mo [4]: 28
bitter/chem-fl [4]: 22
creamy-af [4]: 35
creamy-mo [4]: 43
fatty-af [4]: 28
heterogeneous-mo [4]: 24
prickling-mo [4]: 17
rough-af [4]: 28
smooth-mo [4]: 63
sticky-af [4]: 29
temperature-mo [4]: 37
thick-mo [4]: 41
airy-mo [5]: 29
bitter/chem-fl [5]: 32
creamy-af [5]: 35
creamy-mo [5]: 45
fatty-af [5]: 30
heterogeneous-mo [5]: 27
prickling-mo [5]: 19
rough-af [5]: 26
smooth-mo [5]: 63
sticky-af [5]: 29
temperature-mo [5]: 37
thick-mo [5]: 40
airy-mo [6]: 25
bitter/chem-fl [6]: 40
creamy-af [6]: 37
creamy-mo [6]: 37
fatty-af [6]: 30
heterogeneous-mo [6]: 32
prickling-mo [6]: 23
rough-af [6]: 26
smooth-mo [6]: 64
sticky-af [6]: 29
temperature-mo [6]: 37
thick-mo [6]: 38
airy-mo [7]: 36
bitter/chem-fl [7]: 45
creamy-af [7]: 39
creamy-mo [7]: 39
fatty-af [7]: 36
heterogeneous-mo [7]: 34
melting-mo [7]: 35
prickling-mo [7]: 25
rough-af [7]: 21
smooth-mo [7]: 47
sticky-af [7]: 37
temperature-mo [7]: 44
thick-mo [7]: 49
vanilla-fl [7]: 30
airy-mo [8]: 25
bitter/chem-fl [8]: 35
creamy-af [8]: 36
creamy-mo [8]: 44
fatty-af [8]: 29
heterogeneous-mo [8]: 28
prickling-mo [8]: 19
rough-af [8]: 30
smooth-mo [8]: 62
sticky-af [8]: 31
temperature-mo [8]: 41
thick-mo [8]: 39
airy-mo [9]: 27
bitter/chem-fl [9]: 37
creamy-af [9]: 37
creamy-mo [9]: 39
fatty-af [9]: 28
heterogeneous-mo [9]: 27
prickling-mo [9]: 19
rough-af [9]: 27
smooth-mo [9]: 65
sticky-af [9]: 28
temperature-mo [9]: 39
thick-mo [9]: 38
airy-mo [10]: 26
bitter/chem-fl [10]: 47
creamy-af [10]: 34
creamy-mo [10]: 36
fatty-af [10]: 28
heterogeneous-mo [10]: 28
prickling-mo [10]: 22
rough-af [10]: 27
smooth-mo [10]: 66
sticky-af [10]: 31
temperature-mo [10]: 40
thick-mo [10]: 32
airy-mo [11]: 27
bitter/chem-fl [11]: 27
creamy-af [11]: 37
creamy-mo [11]: 42
fatty-af [11]: 28
heterogeneous-mo [11]: 27
prickling-mo [11]: 17
rough-af [11]: 30
smooth-mo [11]: 65
sticky-af [11]: 31
temperature-mo [11]: 42
thick-mo [11]: 37
airy-mo [12]: 26
bitter/chem-fl [12]: 32
creamy-af [12]: 38
creamy-mo [12]: 43
fatty-af [12]: 29
heterogeneous-mo [12]: 27
prickling-mo [12]: 17
rough-af [12]: 31
smooth-mo [12]: 62
sticky-af [12]: 32
temperature-mo [12]: 42
thick-mo [12]: 41
airy-mo [13]: 27
bitter/chem-fl [13]: 38
creamy-af [13]: 35
creamy-mo [13]: 39
fatty-af [13]: 29
heterogeneous-mo [13]: 33
prickling-mo [13]: 20
rough-af [13]: 31
smooth-mo [13]: 66
sticky-af [13]: 34
temperature-mo [13]: 41
thick-mo [13]: 37
airy-mo [14]: 46
bitter/chem-fl [14]: 52
creamy-af [14]: 39
creamy-mo [14]: 40
fatty-af [14]: 41
heterogeneous-mo [14]: 38
melting-mo [14]: 32
prickling-mo [14]: 24
rough-af [14]: 21
smooth-mo [14]: 49
sticky-af [14]: 44
temperature-mo [14]: 48
thick-mo [14]: 53
vanilla-fl [14]: 29
effect on odor, mouthfeel or afterfeel attributes (non-starch CMC-based custard, added amylase): failed to affect any of the odor, mouthfeel or afterfeel attributes
intensity of bitter/chemical flavor, change when amylase added (non-starch CMC-based custard, p=0.01): increased
bitter/chemical flavor, change with increasing amylase concentration (starch-based custards): increased significantly
creamy mouthfeel, change with increasing amylase concentration (starch-based custards, p<0.0001): decreased
melting mouthfeel, change with increasing amylase concentration (starch-based custards, p=0.001): increased significantly
vanilla flavor, change with increasing amylase concentration (starch-based custards, p=0.001): decreased
thick mouthfeel, change with increasing amylase concentration (starch-based custards, p=0.004): decreased
heterogeneous mouthfeel, change with increasing amylase concentration (starch-based custards, p=0.006): increased significantly
fatty afterfeel, change with increasing amylase concentration (starch-based custards, p=0.05): decreased
